Test results as given in patent US20130110249A1 (UNIVERSITY OF ROCHESTER, published 2013).

Columns and labels:
[1] = biological target: T1, recombinant His-glucosaminidase (His-Gmd) of Staphylococcus aureus autolysin (Staphylococcus aureus, UniProt A7X0T9 775-1254); assay: method not stated; hybridomas screened by ELISA and western dot-blot
T1 construct: also called Gmd-His; recombinant Gmd
T1 sequence: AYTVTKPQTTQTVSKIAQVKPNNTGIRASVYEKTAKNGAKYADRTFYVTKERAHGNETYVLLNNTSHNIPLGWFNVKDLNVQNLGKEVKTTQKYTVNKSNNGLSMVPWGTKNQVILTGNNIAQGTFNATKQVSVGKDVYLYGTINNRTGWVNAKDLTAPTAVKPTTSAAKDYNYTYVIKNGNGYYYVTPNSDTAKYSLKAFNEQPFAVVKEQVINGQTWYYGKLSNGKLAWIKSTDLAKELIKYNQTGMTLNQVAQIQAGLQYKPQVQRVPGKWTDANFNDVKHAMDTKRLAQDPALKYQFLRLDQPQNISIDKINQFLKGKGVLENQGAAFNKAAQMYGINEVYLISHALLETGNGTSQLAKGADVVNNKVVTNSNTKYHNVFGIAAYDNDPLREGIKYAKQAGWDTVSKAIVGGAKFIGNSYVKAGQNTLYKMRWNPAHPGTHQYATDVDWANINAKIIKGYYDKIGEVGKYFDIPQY

[2] = biological target: T2, native Gmd of S. aureus Xen29 (Staphylococcus aureus, UniProt P0C5Z8 776-1255, limits assumed); assay: estimate from the dose dependence of the Xen29 growth (light scattering) assay, assuming about ten times the Kd is required
T2 construct: domain: glucosaminidase (Gmd) subunit of autolysin
T2 sequence (looked up): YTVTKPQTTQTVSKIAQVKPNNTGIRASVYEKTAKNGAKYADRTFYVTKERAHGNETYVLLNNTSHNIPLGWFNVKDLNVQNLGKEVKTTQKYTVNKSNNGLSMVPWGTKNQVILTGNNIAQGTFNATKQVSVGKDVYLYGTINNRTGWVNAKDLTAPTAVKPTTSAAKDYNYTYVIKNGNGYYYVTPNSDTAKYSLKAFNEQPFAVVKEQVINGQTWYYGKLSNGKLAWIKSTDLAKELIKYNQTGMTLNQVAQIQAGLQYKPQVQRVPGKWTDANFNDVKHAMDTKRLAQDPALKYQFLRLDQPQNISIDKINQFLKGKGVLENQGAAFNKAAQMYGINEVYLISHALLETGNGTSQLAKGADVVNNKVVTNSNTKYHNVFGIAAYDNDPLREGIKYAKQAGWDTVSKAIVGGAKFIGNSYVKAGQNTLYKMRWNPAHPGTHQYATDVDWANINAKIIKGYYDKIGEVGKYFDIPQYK

B1: anti-Gmd monoclonal antibody 1C11 (antibody, V domains shown)
VH: QIQLVQSGPELKKPGETVKISCKASGYTFTTYGMSWVNQAPGKGLKWMGWINTYSGVPTYADDFKGRFVFSLETSASTAYLQINNLKNEDTATYFCAREEYSSGYAAWFPYWGQGTLVTVSA
VL: DIVLTQSPATLSVTPGDSVSLSCRASQSISNNLHWYQQKSHESPRLLIEYASRSISGIPSRFSGGGSGTDFTLSINSVESEDFGLYFCQQSNSWPLTFGAGTKLELK
notes: also called mAb 1C11; mouse 1C11
- Kd [1]: ≤ 1 nM
- Kd [2]: ~1 nM

B2: anti-Gmd monoclonal antibody 3A8 (antibody, V domains shown)
VH: EVQLQESGGGLVQPGGSMKLSCAASGFTFSDAWMDWVRQSPEKGLEWVAEIKDKTNNHATYYAESVKGRFTISRDVSKSRVFLQMNSLRPEDTGIYYCTSGPYFDYWGQGTTLTVSS
VL: DIVMTQSHKFMSTSVGDRVSITCKASQDVSTAVAWYQQKPGQSPKLLIYWTSTRHTGVPDRFTGSGSGTDFTLTISSVQAKDLALYYCQQHYTTPYTFGGGTKLEIK
notes: also called mAb 3A8; hybridoma 3A8
- Kd [1]: ≤ 1 nM
- Kd [2]: ~1 nM
